Laboratory results: patent US20150125849A1

Tests used:
[1] = molecular target: GFP with His-tag at the N-extreme (pETsa-his-GFP) [GFP: P42212]; experiment: detection of diluted antigen with 5 µg purified IgG (data not shown)
[2] = molecular target: GFP with His-tag at the C-extreme (pETsa-GFP-his) [GFP: P42212]; experiment: as above

- antigen dilution at which detected [1]: 32 × dilution
- antigen dilution at which detected [2]: 32 × dilution
Substance: His-tag MAb (Invitrogen, Carlsbad, USA) (antibody)
